# In patent US20240190956A1 (IMMUNOGEN, published 2024):
# Columns and labels:
# [1] = biological target: T1, folate receptor alpha (FR-α) (human, UniProt P15328 25-234); experiment: FACS on T47D cells
# T1 construct: whole, on cells; also called FOLR1; human folate receptor 1
# Description: T47D cells were then resuspended in growth media (see above) to neutralize trypsin, and were counted on a Coulter counter. Cells were then washed twice in cold FACS buffer, centrifuging in between washes at 1200 rpm for 5 min.
# About 100 μl/mL of 2×10⁴ cells/well were added to wells containing ADC, antibody or FACS buffer only, and incubated at 4° C. for 2 hr. After incubation, cells were centrifuged as before and washed once in 200 μL/well cold FACS buffer. Cells were then stained with 200 μL/well FITC-conjugated Goat Anti-Human-IgG-Fcγ secondary antibody (controls included were unstained cells and those stained with secondary antibody only) for 40 min at 4° C., centrifuged and washed once in 200 μL/well cold PBS-D. Cells were fixed in 200 μL/well 1% formaldehyde/PBS-D and stored at 4° C.
# After storage, cellular surface staining of conjugate or antibody was detected using flow cytometry on a FACS Calibur (BD Biosciences). The geometric means were plotted against the log concentration of ADC or antibody using GraphPad Prism and the EC₅₀ was calculated via non-linear 4-parameter logistic regression analysis.
# [2] = biological target: T1, folate receptor alpha (FR-α); experiment: cell-based or functional assay
# CD123 = CD123 (UniProt P26951 19-378, limits assumed); experiment: cell-based or functional assay
# Chain of CD123 (P26951 19-378 limits assumed): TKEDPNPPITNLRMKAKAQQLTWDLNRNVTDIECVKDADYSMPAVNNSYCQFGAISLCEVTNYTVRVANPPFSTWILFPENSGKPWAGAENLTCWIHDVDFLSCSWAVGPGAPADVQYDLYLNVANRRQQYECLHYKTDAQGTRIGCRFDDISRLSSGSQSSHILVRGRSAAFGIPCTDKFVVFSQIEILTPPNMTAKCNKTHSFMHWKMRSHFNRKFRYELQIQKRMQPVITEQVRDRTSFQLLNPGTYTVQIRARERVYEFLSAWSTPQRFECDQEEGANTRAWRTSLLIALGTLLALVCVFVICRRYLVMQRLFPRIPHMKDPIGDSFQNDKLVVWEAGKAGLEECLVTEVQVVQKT
# T1 sequence (P15328 25-234): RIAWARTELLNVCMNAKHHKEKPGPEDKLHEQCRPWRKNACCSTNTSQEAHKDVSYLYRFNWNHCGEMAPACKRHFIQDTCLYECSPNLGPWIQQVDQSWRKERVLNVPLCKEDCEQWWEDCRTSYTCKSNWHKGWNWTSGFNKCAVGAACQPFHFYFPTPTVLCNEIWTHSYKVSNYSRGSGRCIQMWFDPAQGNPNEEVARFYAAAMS
binder,measurement,setting,value
"huMOV19-NTS #2 (antibody, huMOV19 with the heavy chain N-terminal Gln replaced by Ser (huMov19 HC NTS2); also called SeriMab; huMOV19-SeriMab antibody) heavy: not shown light: DIVLTQSPLSLAVSLGQPAIISCKASQSVSFAGTSLMHWYHQKPGQQPRLLIYRASNLEAGVPDRFSGSGSKTDFTLTISPVEAEDAATYYCQQSREYPYTFGGGTKLEIKRTVAAPSVFIFPPSDEQLKSGTASVVCLLNNFYPREAKVQWKVDNALQSGNSQESVTEQDSKDSTYSLSSTLTLSKADYEKHKVYACEVTHQGLSSPVTKSFNRGEC",binding result,[1],binds
"huMOV19-NTS #2-Linker1-Compound A (antibody, N-terminal Ser oxidized to an aldehyde and linked through Linker1 to Compound A (sulfonated DGN462); two Compound A molecules per antibody) heavy: not shown light: DIVLTQSPLSLAVSLGQPAIISCKASQSVSFAGTSLMHWYHQKPGQQPRLLIYRASNLEAGVPDRFSGSGSKTDFTLTISPVEAEDAATYYCQQSREYPYTFGGGTKLEIKRTVAAPSVFIFPPSDEQLKSGTASVVCLLNNFYPREAKVQWKVDNALQSGNSQESVTEQDSKDSTYSLSSTLTLSKADYEKHKVYACEVTHQGLSSPVTKSFNRGEC","cytotoxicity on KB cells (WST-8), potency against the lysine-conjugated ADC, by Compound A concentration",[2],~5 fold
same,"cytotoxicity on KB cells (WST-8), potency against the lysine-conjugated ADC, by antibody concentration",[2],~3 fold
"huCD123-6Rv1.1S2-SeriMab-D8 (antibody, V domains shown) VH: SFQLVQSGAEVVKPGASVKMSCKASGYTFTSSIMHWMKQKPGQGLEWIGYIKPYNDGTKYNQKFQGKATLTSDKSSSTANMELNSLTSEDSAVYYCAREGGNDYYDTMDYWGQGTSVTVSS VL: DIQMTQSPSSMSASVGERVTITCRASQDINSYLSWFQQKPGKSPKTLIYRVNRLVDGVPSRFSGSGSGQDYSLTISSLEPEDMGIYYCLQYDAFPYTFGQGTKLEIKR",IC50 of cytotoxicity on HNT-34 cells (WST-8),CD123,~0.002 nM
same,IC50 of cytotoxicity on MOLM-1 cells (WST-8),CD123,~0.03 nM
same,IC50 of cytotoxicity on SHI-1 cells (WST-8),CD123,~0.01 nM
same,loss of cytotoxicity when CD123 is blocked by unconjugated huCD123-6 antibody,CD123,100 fold
"huMOV19 (antibody, human IgG1, kappa, Humanized anti-folate receptor alpha IgG1/kappa; also called M9346A; unconjugated native huMOV19 antibody) heavy: not shown light: DIVLTQSPLSLAVSLGQPAIISCKASQSVSFAGTSLMHWYHQKPGQQPRLLIYRASNLEAGVPDRFSGSGSKTDFTLTISPVEAEDAATYYCQQSREYPYTFGGGTKLEIKRTVAAPSVFIFPPSDEQLKSGTASVVCLLNNFYPREAKVQWKVDNALQSGNSQESVTEQDSKDSTYSLSSTLTLSKADYEKHKVYACEVTHQGLSSPVTKSFNRGEC",binding result,[1],binds
